Tested on: MS2 coat protein
Experiment: apparent KD of MS2 coat protein; designed switch direction (-1 OFF switch, 1 ON switch): -1; higher = weaker reporter binding
Procedure, shortened: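 Designed RNA switches with common flanks were made on Illumina chips by stalled E. coli RNA polymerase. Titration with SNAP-549-labelled MS2 coat protein doubled from 0.7 or 1.5 nM up to 3 µM. Apparent KD is each design's median over clusters after curve-fitting normalised fluorescence.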

[1] = input ligand: microRNA oligo, concentration not stated
[2] = Eterna round: R95, input ligand: microRNA oligo, concentration not stated
[3] = Eterna round: R95, input ligand: FMN 200 uM
[4] = Eterna round: R95, input ligand: none

Question: Which “apparent KD of MS2 coat protein” value (input ligand: FMN 200 uM) does the source give for “UACAUGAGGAUCACCCAUGUUUUGUCGUGUAUGGUACCCGUCUAGGAUAUCGUGUUAUUGGACCACGAGAAGGAGAGUAUCAAU [Excl-NG3-LRO02] (Eterna round: R96, puzzle: Exclusion NG 3)” here?
Answer: 42.6 nM

Question: What about the “apparent KD of MS2 coat protein” value [1] of the same sequence?
Answer: 20.3 nM

Question: What about the “apparent KD of MS2 coat protein” value (input ligand: none) of the same sequence?
Answer: 31.7 nM

Question: What does the source list for “GUAAUUAAUGUAGGAUAUGCAAGGCGAACCUAAGCAGAAGGAACAUGAGGAUCACCCAUGUAUGCGGUCUGCGUACAGAUCGCU [salish99_ExNG1_r4_004] (Eterna round: R96, puzzle: Exclusion NG 1)”?
Answer: apparent KD of MS2 coat protein (input ligand: FMN 200 uM): 15.1 nM; apparent KD of MS2 coat protein [1]: 13.3 nM; apparent KD of MS2 coat protein (input ligand: none): 19.7 nM

Question: How did the “apparent KD of MS2 coat protein” value [2] turn out when “GUGUAGACAGGAUAUGCUUUGAGCAUAUGAGAGUAUGCUCUACAUGAGGAUCACCCAUGUAGAAGGGUCUACAC [LRO-Excl2-01] (puzzle: Exclusion 2)” was run?
Answer: 11 nM

Question: For “UCGGCGCGAGGAUAUGCGGUUUGUGCUUUGGGCCCUCGCGUACAUGAGGAUCACCCAUGUAGAAGGCGCGCCGC [Apr-15 SS2-46] (puzzle: Exclusion 2)”, which “apparent KD of MS2 coat protein” value [2] is on record?
Answer: 95.6 nM

Question: “CUUUUGUGAGGAUAUCAGUAUUAAAAAAAUAAAAUUACUACUGAGAAGGCACAUGAGGAUCACCCAUGUUCCUC [salish99_ex4_r3_032] (puzzle: Exclusion 4)” was tested. Which “apparent KD of MS2 coat protein” value [2] did it give?
Answer: 34.4 nM

Question: “CUUUUGUGAGGAUAUCAGUAGUAUAAAAUAAAAUAUACUACUGAGAAGGCACAUGAGGAUCACCCAUGUUCCUC [Mat - Exclusion 4 - Mod of Salish - D71] (puzzle: Exclusion 4)” was tested. Which “apparent KD of MS2 coat protein” value [2] did it give?
Answer: 38.5 nM

Question: Which results are given for “GUGGAGUAAGGAUAUACAUGAGGAUCACCCAUGUGAGGGUAUGAGAAGGGAAUGAGAGGUAGAAGGUACGAGGA [JR_Exclu3_Sub069] (puzzle: Exclusion 3)”?
Answer: apparent KD of MS2 coat protein [3]: 108 nM; apparent KD of MS2 coat protein [2]: 106 nM; apparent KD of MS2 coat protein [4]: 186 nM

Question: Which “apparent KD of MS2 coat protein” value [2] does the source give for “GUGGCACAUGAGGAUCACCCAUGUCAGGAUAUCGUGUGUUUUUUUUCGGCCGCGCGCGCGAGAAGGGACGUCUU (puzzle: Exclusion 1)” here?
Answer: 97.8 nM

Question: For “CUUUUGUGAGGAUAUCAGUAGUAAAUAAAUAUAAUUACUACUGAGAAGGCACAUGAGGAUCACCCAUGUUCCUC [salish99_ex3_r3_082] (puzzle: Exclusion 4)”, which “apparent KD of MS2 coat protein” value [2] is on record?
Answer: 38.2 nM

Question: With “AAAUAGGGAGGAUAUCCAAUAUAUGACAUGAGGAUCACCCAUGUUUCCACUCGUACCUCCGGAGAAGGCCCAUAAA [Ex5 #3] (Eterna round: R97, puzzle: Exclusion 5)” as the sequence, how does the “apparent KD of MS2 coat protein” value (input ligand: FMN 200 uM) read?
Answer: 20.9 nM

Question: And the “apparent KD of MS2 coat protein” value (input ligand: none)?
Answer: 21.8 nM

Question: How did the “apparent KD of MS2 coat protein” value [2] turn out when “CAAAAGGAAGGAUAUACAUGUUAAUUAUCCGAAGAUGUCGUACAUGAGGAUCACCCAUGUAGAAGGUCCAAAAC [Tiesbiused] (puzzle: Exclusion 2)” was run?
Answer: 27.1 nM

Question: Which “apparent KD of MS2 coat protein” value [1] does the source give for “UUAUUAUAUGUAGGAUAUGCAUAUUAUUAUUAUGCAGAAGGACAUGAGGAUCACCCAUGUAUAUUAUUAUUAUAUAUUGUAUAU [Title] (Eterna round: R96, puzzle: Exclusion NG 1)” here?
Answer: 23.2 nM

Question: How did the “apparent KD of MS2 coat protein” value [2] turn out when “AGCUCAAAAGUGAGGAUAUCUAGGGUCAAAUGACCGGAGAAGGCACAUGAGGAUCACCCAUGUAACGCCAUGGA [Ceinveusar] (puzzle: Brourd's mod of Exclusion 4)” was run?
Answer: 12.5 nM

Question: What does the source list for “UUUUUAAAUGAAGGAUAUACUUAACAUGAGGAUCACCCAUGUGGUGUUGUGAGUGAGUGAGUUUAGUAGAAGGUCAAUGAUUUU [JMF's solution 65] (Eterna round: R96, puzzle: Exclusion NG 2)”?
Answer: apparent KD of MS2 coat protein (input ligand: FMN 200 uM): 1250 nM; apparent KD of MS2 coat protein [1]: 196 nM; apparent KD of MS2 coat protein (input ligand: none): 211 nM

Question: What does the source list for “GAUUAUGCGAGCUUUAGGGACAUGAGGAUCACCCAUGUUCGUCUUAUUGAUCUAGAUGCACUAACAUACCUAAAUCU [JMF 25] (puzzle: Sensor v3, turn-off variant 1)”?
Answer: apparent KD of MS2 coat protein [3]: 19.7 nM; apparent KD of MS2 coat protein [2]: 25.1 nM; apparent KD of MS2 coat protein [4]: 20.1 nM

Question: For “GCCUGAGCAGGAUAUUCAAUAAUUCACAUGAGGAUCACCCAUGUCCAGCGAAAGCUAGGAGGAGAAGGGCUCAGGC [Mat - Exclusion 5 - Eli mod - D86] (puzzle: Exclusion 5)”, which “apparent KD of MS2 coat protein” value [3] is on record?
Answer: 18.3 nM

Question: And the “apparent KD of MS2 coat protein” value [2]?
Answer: 16.5 nM

Question: And the “apparent KD of MS2 coat protein” value [4]?
Answer: 17.8 nM

Question: How did the “apparent KD of MS2 coat protein” value (input ligand: FMN 200 uM) turn out when “GGAUCACAUGUUAGGAUAUGCAGGUCCUUGGAUCUGCAGAAGGGACAUGAGGAUCACCCAUGUCAUGAAGAUCC [Mat - Exclusion 4 - Eli Mod - D52] (Eterna round: R97, puzzle: Brourd's mod of Exclusion 4)” was run?
Answer: 43.4 nM

Question: And the “apparent KD of MS2 coat protein” value (input ligand: none)?
Answer: 21 nM

Question: “GGGAGAGAGUGAGGAUAUCAAAGAACAUGAGGAUCACCCAUGUAACCUCAUGUAAGAAGAAGAAGUGAGAAGGCACAGGAGGGU [Default title] (Eterna round: R96, puzzle: Exclusion NG 2)” was tested. Which “apparent KD of MS2 coat protein” value (input ligand: FMN 200 uM) did it give?
Answer: 463 nM

Question: What about the “apparent KD of MS2 coat protein” value [1] of the same sequence?
Answer: 256 nM

Question: What about the “apparent KD of MS2 coat protein” value (input ligand: none) of the same sequence?
Answer: 628 nM

Question: How did the “apparent KD of MS2 coat protein” value [3] turn out when “AAGAAGCUAGGAUAUCACACUGACAACAUGAGGAUCACCCAUGUAGGUGAUCGGUUAGCUUGAGAAGGAGCGGAGG [Laedanes] (puzzle: Exclusion 5)” was run?
Answer: 83.5 nM

Question: And the “apparent KD of MS2 coat protein” value [2]?
Answer: 46.9 nM

Question: What about the “apparent KD of MS2 coat protein” value [4] of the same sequence?
Answer: 78.3 nM

Question: With “GGAAGACAUGAGGAUCACCCAUGUAAGGAUAUCGAAGGUAAGAGAGGAAAGAAGGGAACGAGAAGGUACAGGUG [JR_Exclu1_Sub095] (puzzle: Exclusion 1)” as the sequence, how does the “apparent KD of MS2 coat protein” value [3] read?
Answer: 102 nM

Question: And the “apparent KD of MS2 coat protein” value [2]?
Answer: 88.9 nM

Question: What about the “apparent KD of MS2 coat protein” value [4] of the same sequence?
Answer: 123 nM

Question: With “AAGUCGAGCGUGAGGAUAUCGUCCGGACGACCCAACGAGAAGGCACAUGAGGAUCACCCAUGUGAUUCAGCUCA [Brourd's EX4 #50] (Eterna round: R97, puzzle: Brourd's mod of Exclusion 4)” as the sequence, how does the “apparent KD of MS2 coat protein” value (input ligand: FMN 200 uM) read?
Answer: 20.3 nM

Question: What about the “apparent KD of MS2 coat protein” value (input ligand: none) of the same sequence?
Answer: 18.7 nM

Question: Which results are given for “CUAAUAUAUCAGGAUAUGAUUAUAUGUGUUAGAUCAGAAGGGAUAACAUGAGGAUCACCCAUGUUGUGGAGUGA [JR_Ex6_Sub035] (Eterna round: R97, puzzle: Exclusion 6)”?
Answer: apparent KD of MS2 coat protein (input ligand: FMN 200 uM): 67.3 nM; apparent KD of MS2 coat protein (input ligand: none): 64.2 nM

Question: Which “apparent KD of MS2 coat protein” value [2] does the source give for “ACGUUUUUUGAGGAUAUGCGAUAGUUUUAUAUCGUAGAAGGCGAUACAUGAGGAUCACCCAUGUUUAUGGGCAU [LRO-Ex6-20] (puzzle: Exclusion 6)” here?
Answer: 155 nM

Question: With “UCGCUCCGUGUAGGAUAUCGCCGUACGAUGCGGCGAGAAGGACAUGAGGAUCACCCAUGUAUGUUAUUAUCACGCGUGGCGCAA [Design 62] (Eterna round: R96, puzzle: Exclusion NG 1)” as the sequence, how does the “apparent KD of MS2 coat protein” value (input ligand: FMN 200 uM) read?
Answer: 21.3 nM

Question: What about the “apparent KD of MS2 coat protein” value [1] of the same sequence?
Answer: 11.3 nM

Question: What about the “apparent KD of MS2 coat protein” value (input ligand: none) of the same sequence?
Answer: 16.5 nM

Question: “CUGGUCCGAGGAUAUAUGAUGUGAAACAUGAGGAUCACCCAUGUAAUAUUAUGGAUGGAAAUAGAAGGCGGACUAG [Mat - Exclusion 5 - JL mod - D36] (puzzle: Exclusion 5)” was tested. Which “apparent KD of MS2 coat protein” value [3] did it give?
Answer: 63.5 nM

Question: What about the “apparent KD of MS2 coat protein” value [2] of the same sequence?
Answer: 49.7 nM

Question: And the “apparent KD of MS2 coat protein” value [4]?
Answer: 65.2 nM

Question: How did the “apparent KD of MS2 coat protein” value (input ligand: FMN 200 uM) turn out when “AUUGUUUAUGUAGGAUAUGCCUGGCGUGCCUUUGCAGAAGGACAUGAGGAUCACCCAUGUAUUGCGGUCUGCGUUCAGAUCGCU [salish99_ExNG1_r4_033] (Eterna round: R96, puzzle: Exclusion NG 1)” was run?
Answer: 44.4 nM

Question: And the “apparent KD of MS2 coat protein” value [1]?
Answer: 28.7 nM

Question: What about the “apparent KD of MS2 coat protein” value (input ligand: none) of the same sequence?
Answer: 30.7 nM

Question: For “GCAAGACAUGAGGAUCACCCAUGUGAGGAUAUUGCUCGACACCUGCGCGAAGAGUCGAUAAGAAGGUACAGGGU [Eternabot (L2) Solution 90] (Eterna round: R97, puzzle: Exclusion 1)”, which “apparent KD of MS2 coat protein” value (input ligand: FMN 200 uM) is on record?
Answer: 69.4 nM

Question: And the “apparent KD of MS2 coat protein” value (input ligand: none)?
Answer: 52.6 nM
